Measured values as given in article doi:10.1101/2023.10.12.561995 (bioRxiv, 2023).

Experiments:
[1] = biological target: T1, SARS-CoV-2 RBD (wildtype), residues 319-541 of S-protein (SARS-CoV-2 wildtype, UniProt P0DTC2); experiment: BLI
[2] = biological target: T1, SARS-CoV-2 RBD (wildtype), residues …; experiment: cell-based or functional assay

B1: R1-26 (mAb, human IgG1) (antibody, V domains shown)
VH: EVQLVESGGGLVQPGGSLRLSCAASGFTFSSYWMSWVRQAPGKGLEWVANIKQDGSEKYYVDSVKGRFTISRDNAKNSLYLQMNSLRAEDTAVYYCARGQLGPWVGVDYWGQGTLVTVSS
VL: NFMLTQPHSVSESPGKTVTISCTGSSGSIASNYVQWYQQRPGSAPTTVIYEDNQRPSGVPDRFSGSIDSSSNSASLTISGLKTEDEADYYCQSYDSSNWVFGGGTQLTVL
- Kd [1]: 3.8 nM
- neutralisation of a pseudovirus displaying WT SARS-CoV-2 S-protein, IC50 [2]: 2.7 nM
